Sequences and labels used below:
B1: GST-His6-DgrA (natural protein, Bacillus subtilis NCIB 3610, UniProt P38491 1-217, looked up)
chain: MIEIGENVLLEYIEENELKKAKSKAVSIENNELLIAYPVDVVTGRTVILHNDMEVTVEFVGKDEVPYRFISRIKGKVKDKLQMICLEMPPREKMKRIQRRQYVRTDAVLDVQIQPGNEEEIRTLSYNISAGGIAVVLADGLSFQSGESLRLIIRLPEEEHTRQIETEAVVRRIFNDPKSEKRKMTLEYSEIAAGDQQALLQYCIRRQLNKRRKARME
notes: PilZ domain c-di-GMP receptor DgrA of Bacillus subtilis NCIB 3610, residues 1 to 217, full length (construct pPB48); also called GST-His-DgrA; PilZ protein DgrA; source: E. coli BL21(DE3), purified (Ni-NTA, SEC); not shown: GST, N-terminal, kept; His6, N-terminal, kept
B5: His6-DgcK-ΔN175 (domain or fragment, Bacillus subtilis NCIB 3610, UniProt P54595 176-359, looked up)
chain: DHETNAHLLFKQYKFQAHFDFLTGVYNRRKFEETTKALYQQAADTPHFQFALIYMDIDHFKTINDQYGHHEGDQVLKELGLRLKQTIRNTDPAARIGGEEFAVLLPNCSLDKAARIAERIRSTVSDAPIVLTNGDELSVTISLGAAHYPNNTEQPGSLPILADQMLYKAKETGRNRVCFSEKKE
notes: Diguanylate cyclase DgcK of Bacillus subtilis NCIB 3610, soluble domain, residues 176 to 359 (construct pAT02b); also called His-DgcK-ΔN175; soluble domain of DgcK; source: E. coli BL21(DE3), purified (Ni-NTA, SEC); also coexpressed with YdaK-ΔN111 in E. coli BL21(DE3), in lysate; not shown: His6, N-terminal, kept

Experiment [1] has as its target T1, YdaK-ΔN111 (Bacillus subtilis, UniProt P96585, R202A).
T1 construct: soluble degenerate GGDEF domain, residues 112 to 283 (4 TM helices removed), from E. coli BL21(DE3)
Kind of experiment: hydrogen-deuterium exchange mass spectrometry. To be noted: 50 µM protein, 1 mM c-di-GMP; pH 7.5, 20 mM MgCl2, 25 °C; I-site mutant, tested for loss of binding.

A further experiment deals with T2, DgcK-ΔN175 (Bacillus subtilis, UniProt P54595).
T2 construct: soluble GGDEF domain, residues 176 to 359 (6 TM helices removed); N-terminal His6 or GST-His6, from E. coli BL21(DE3)
In words: HPLC of nucleotide co-purified with the denatured protein. Type of experiment: binding. The conditions noted are these: ligand co-purified from E. coli host.

Experiment [2] addresses T3, YdaK-ΔN111 (Bacillus subtilis, UniProt P96585).
T3 construct: soluble degenerate GGDEF domain, residues 112 to 283 (4 TM helices removed), from E. coli BL21(DE3)
In words: hydrogen-deuterium exchange mass spectrometry. In kind it is binding. The conditions noted are these: 50 µM protein, 1 mM c-di-GMP; pH 7.5, 20 mM MgCl2, 25 °C; I-site (RXXD).

Another experiment deals with T4, DgcP-StrepII (Bacillus subtilis NCIB 3610, UniProt O34325 1-579).
T4 construct: soluble diguanylate cyclase DgcP of Bacillus subtilis NCIB 3610, residues 1 to 579, full length (construct pPB25); also called pPB25; source: E. coli BL21(DE3), purified (StrepTrap HP, SEC); not shown: StrepII, C-terminal, kept
T4 sequence (looked up): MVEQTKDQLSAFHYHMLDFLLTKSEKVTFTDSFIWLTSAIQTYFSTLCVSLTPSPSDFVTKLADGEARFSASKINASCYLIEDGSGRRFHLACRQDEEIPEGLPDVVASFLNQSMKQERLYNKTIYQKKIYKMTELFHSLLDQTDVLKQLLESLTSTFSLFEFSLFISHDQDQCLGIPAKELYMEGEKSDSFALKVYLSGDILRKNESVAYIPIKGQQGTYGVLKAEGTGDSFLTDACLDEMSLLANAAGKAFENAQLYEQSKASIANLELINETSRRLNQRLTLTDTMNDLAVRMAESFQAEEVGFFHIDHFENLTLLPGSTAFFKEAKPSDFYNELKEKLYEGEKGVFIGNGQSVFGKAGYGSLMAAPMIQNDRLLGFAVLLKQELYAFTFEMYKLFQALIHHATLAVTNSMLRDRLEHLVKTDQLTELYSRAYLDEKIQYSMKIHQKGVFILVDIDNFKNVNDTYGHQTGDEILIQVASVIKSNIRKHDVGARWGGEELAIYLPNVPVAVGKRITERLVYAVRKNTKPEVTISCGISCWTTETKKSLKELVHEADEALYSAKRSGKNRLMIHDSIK
In words: pull-down; 2 nmol DgcP-StrepII immobilised on Strep-Tactin-Sepharose, 20 nmol GST-His6-DgrA, with or without 2 mM c-di-GMP; buffer A; elution with 50 mM D-biotin; Coomassie-stained SDS-PAGE. The conditions noted are these: both partners purified.

The target of experiment [3] is B5. Kind of experiment: pull-down; 2 nmol His6-DgcK-ΔN175 immobilised on nickel-Sepharose beads, 20 nmol prey, with or without added c-di-GMP; buffer A (20 mM HEPES-Na pH 7.5, 250 mM NaCl, 20 mM MgCl2, 20 mM KCl, 0.05% Tween); elution with 500 mM imidazole; Coomassie-stained SDS-PAGE. To be noted: both partners purified.
For experiment [4], the target named is B5. Kind of experiment: pull-down; 2 nmol GST-His6-YdaK-ΔN111 (or GST) immobilised on glutathione-Sepharose 4B, 20 nmol His6-DgcK-ΔN175, with or without added c-di-GMP; 4°C, buffer A (20 mM HEPES-Na pH 7.5, 250 mM NaCl, 20 mM MgCl2, 20 mM KCl, 0.05% Tween); Coomassie-stained SDS-PAGE. The conditions noted are these: both partners purified.
The target in the next experiment is T5, GST-His6-DgcK-ΔN175 (Bacillus subtilis NCIB 3610, UniProt P54595 176-359).
T5 construct: Diguanylate cyclase DgcK of Bacillus subtilis NCIB 3610, soluble domain, residues 176 to 359 (construct pAT02a); also called pAT02a; source: E. coli BL21(DE3), purified (Ni-NTA, SEC); not shown: GST, N-terminal, kept; His6, N-terminal, kept
T5 sequence (looked up): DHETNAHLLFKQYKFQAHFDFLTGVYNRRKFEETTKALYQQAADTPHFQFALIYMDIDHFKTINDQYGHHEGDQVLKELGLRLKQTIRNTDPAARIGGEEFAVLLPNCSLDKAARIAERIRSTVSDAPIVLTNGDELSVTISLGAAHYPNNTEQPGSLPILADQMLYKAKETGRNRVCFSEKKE
Kind of experiment: pull-down; 2 nmol GST-His6-DgcK-ΔN175 immobilised on glutathione-Sepharose 4B, 20 nmol His6-YdaK-ΔN111 or its R202A variant, with or without added c-di-GMP; 4°C, buffer A; Coomassie-stained SDS-PAGE. The conditions noted are these: both partners purified.

The experiment “GST-His6-DgrA” has as its target B1. Kind of experiment: pull-down; 2 nmol GST-His6-DgrA (or GST control) immobilised on glutathione-Sepharose beads, 20 nmol His6-DgcK-ΔN175, with or without 2 mM c-di-GMP; 4°C, buffer A; Coomassie-stained SDS-PAGE. To be noted: both partners purified.

T1 sequence (P96585 112-283 R202A): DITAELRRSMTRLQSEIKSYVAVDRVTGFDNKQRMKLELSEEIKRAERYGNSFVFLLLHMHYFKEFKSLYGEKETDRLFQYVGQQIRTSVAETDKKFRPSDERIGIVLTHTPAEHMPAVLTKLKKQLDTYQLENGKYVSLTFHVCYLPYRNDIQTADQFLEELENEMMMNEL

For `Nc1nc2c(ncn2[C@@H]2O[C@@H]3COP(=O)(O)O[C@H]4[C@@H](O)[C@H](n5cnc6c(=O)[nH]c(N)nc65)O[C@@H]4COP(=O)(O)O[C@H]3[C@H]2O)c(=O)[nH]1` [c-di-GMP], the “no alterations in HDX” value at YdaK-ΔN111 [1] is “indicating the inability of c-di-GMP to bind to this variant”. In addition, the loading on DgcK-ΔN175 is listed as ~ 25%. In addition, the “decrease in H/D exchange” value at YdaK-ΔN111 [2] is “presence of c-di-GMP resulted in a strong decrease in H/D exchange in many parts of YdaK”. B1: the binding result with DgcP-StrepII is “binds”.

B2: GST-YdaK-ΔN111 (domain or fragment, Bacillus subtilis NCIB 3610, UniProt P96585 112-283, looked up)
chain: DITAELRRSMTRLQSEIKSYVAVDRVTGFDNKQRMKLELSEEIKRAERYGNSFVFLLLHMHYFKEFKSLYGEKETDRLFQYVGQQIRTSVRETDKKFRPSDERIGIVLTHTPAEHMPAVLTKLKKQLDTYQLENGKYVSLTFHVCYLPYRNDIQTADQFLEELENEMMMNEL
notes: c-di-GMP receptor YdaK of Bacillus subtilis NCIB 3610, soluble domain (degenerated GGDEF domain), residues 112 to 283 (construct pAT03c); also called pAT03c; source: E. coli BL21(DE3), purified (GSTrap FF, SEC); not shown: GST, N-terminal, kept
B2: the binding result with His6-DgcK-ΔN175 [3] was “binds”.

B3: GST-His6-YdaK-ΔN111 (domain or fragment, Bacillus subtilis NCIB 3610, UniProt P96585 112-283, looked up)
chain: DITAELRRSMTRLQSEIKSYVAVDRVTGFDNKQRMKLELSEEIKRAERYGNSFVFLLLHMHYFKEFKSLYGEKETDRLFQYVGQQIRTSVRETDKKFRPSDERIGIVLTHTPAEHMPAVLTKLKKQLDTYQLENGKYVSLTFHVCYLPYRNDIQTADQFLEELENEMMMNEL
notes: c-di-GMP receptor YdaK of Bacillus subtilis NCIB 3610, soluble domain, residues 112 to 283 (construct pAT03a); also called pAT03a; not shown: GST, N-terminal, kept
As for B3, the binding result with His6-DgcK-ΔN175 [4] was “binds”.

B4: His6-YdaK-ΔN111 (domain or fragment, Bacillus subtilis NCIB 3610, UniProt P96585 112-283, looked up)
chain: DITAELRRSMTRLQSEIKSYVAVDRVTGFDNKQRMKLELSEEIKRAERYGNSFVFLLLHMHYFKEFKSLYGEKETDRLFQYVGQQIRTSVRETDKKFRPSDERIGIVLTHTPAEHMPAVLTKLKKQLDTYQLENGKYVSLTFHVCYLPYRNDIQTADQFLEELENEMMMNEL
notes: c-di-GMP receptor YdaK of Bacillus subtilis NCIB 3610, soluble domain, residues 112 to 283 (construct pAT03b); also called native YdaK; pAT03b; source: E. coli BL21(DE3), purified (Ni-NTA, SEC); not shown: His6, N-terminal, kept
On to B4, for which, in the experiment with GST-His6-DgcK-ΔN175, the binding result is “binds”. B5: the binding result with GST-His6-DgrA is listed as “binds”.

These data come from article PMC7064775, “Cyclic di-GMP Signaling in Bacillus subtilis Is Governed by Direct Interactions of Diguanylate Cyclases and Cognate Receptors” (mBio, 2020).
